This note sets out measurements from PMC10657410.

The experiment has as its target GST-ApCaV2a1 C-terminal fragment 1 with the putative RxLPxxP site removed (Aplysia californica). In words: pull-down; GST protein on glutathione beads rotated with His-tag protein eluate overnight at 4 °C; washed 4 x 10 min with PBS; eluted by boiling; SDS-PAGE, Ponceau stain and blot with anti-His antibody.

Substance “His-SH3-3 domain of Aplysia RIM-binding protein (ApRBP) (domain or fragment)” showed a percent of binding remaining of 26%.
